# Source: patent US20250320281A1
# Key:
# Test in all cases: cell-based or functional assay
# [1] = molecular target: HIV-1 Env of isolate DU422 (clade C pseudovirus) (HIV-1)
# [2] = molecular target: HIV-1 Env of isolate PVO.4 (clade B pseudovirus) (HIV-1)
# [3] = molecular target: HIV-1 Env of isolate REJ04541 (clade B pseudovirus) (HIV-1)
# [4] = molecular target: HIV-1 Env of isolate CAP45 (clade C pseudovirus) (HIV-1)
# [5] = molecular target: HIV-1 Env of isolate DU156 (clade C pseudovirus) (HIV-1)
# [6] = molecular target: HIV-1 Env of isolate THRO.18 (clade B pseudovirus) (HIV-1)
# [7] = molecular target: HIV-1 Env of isolate Du172 (clade C pseudovirus) (HIV-1)
# [8] = molecular target: HIV-1 JR-FL Env E168K (HIV-1 JR-FL)
# [9] = molecular target: MuLV envelope protein (control pseudovirus) (MuLV)
# [10] = molecular target: HIV-1 93IN905 envelope glycoprotein (Env) on pseudovirus (HIV-1 isolate 93IN905 (clade C))
# [11] = molecular target: HIV-1 92UG024 envelope glycoprotein (Env) on pseudovirus (HIV-1 isolate 92UG024 (clade D))
# [12] = molecular target: HIV-1 JRCSF envelope glycoprotein (Env) on pseudovirus (HIV-1 isolate JRCSF (clade B)) (UniProt P20871)
# [13] = molecular target: HIV-1 MGRM-D-018 envelope glycoprotein (Env) on pseudovirus (HIV-1 isolate MGRM-D-018 (clade D))
# [14] = molecular target: HIV-1 MGRM-AG-005 Env (HIV-1)
# [15] = molecular target: HIV-1 MGRM-C-026 Env (HIV-1)
# [16] = molecular target: HIV-1 APV17 Env (HIV-1)
# [17] = molecular target: HIV-1 92RW020 Env (HIV-1)
# [18] = molecular target: HIV-1 93UG077 Env (HIV-1)
# [19] = molecular target: HIV-1 MGRM-C-027 Env (HIV-1)
# [20] = molecular target: HIV-1 APV13 Env (HIV-1)
# [21] = molecular target: aMLV envelope (aMLV)
# [22] = molecular target: HIV-1 94UG103 Env (pseudovirus) (HIV-1 isolate 94UG103 (clade A))
# [23] = molecular target: HIV-1 92BR020 Env (pseudovirus) (HIV-1 isolate 92BR020 (clade B))
# [24] = molecular target: HIV-1 MGRM-C-028 Env (pseudovirus) (HIV-1 isolate MGRM-C-028 (clade C))
# [25] = molecular target: HIV-1 MGRM-C-026 Env (pseudovirus) (HIV-1 isolate MGRM-C-026 (clade C))
# [26] = molecular target: HIV-1 92TH021 Env (pseudovirus) (HIV-1 isolate 92TH021 (clade AE))
# [27] = molecular target: HIV-1 Env of isolate MG RM-D-001 (clade D), on pseudovirus (HIV-1)
# [28] = molecular target: HIV-1 Env of isolate MGRM-F1-014 (clade F), on pseudovirus (HIV-1)
# [29] = molecular target: HIV-1 Env of isolate MGRM-F1-021 (clade F pseudovirus) (HIV-1)
# [30] = molecular target: HIV-1 Env of isolate MGRM-F1-022 (clade F pseudovirus) (HIV-1)
# [31] = molecular target: HIV-1 Env of pseudovirus MGRM-A-004 (subtype A) (HIV-1)
# [32] = molecular target: HIV-1 Env of pseudovirus MGRM-AG-006 (subtype AG) (HIV-1)
# [33] = molecular target: HIV-1 Env of isolate MG RM-D-026 (HIV-1)
# [34] = molecular target: HIV-1 Env of pseudovirus MGRM-AG-003 (subtype AG) (HIV-1)
# [35] = molecular target: HIV-1 Env of isolate MG RM-D-024 (HIV-1)
# Sequence of 1443_C16 (PG16) (TCN-116) (antibody) (VH): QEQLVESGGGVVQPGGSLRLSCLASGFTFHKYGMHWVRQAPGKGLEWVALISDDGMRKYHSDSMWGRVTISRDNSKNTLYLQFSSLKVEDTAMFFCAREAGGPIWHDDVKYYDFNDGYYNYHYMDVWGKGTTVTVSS
# Sequence of 1443_C16 (PG16) (TCN-116) (antibody) (VL): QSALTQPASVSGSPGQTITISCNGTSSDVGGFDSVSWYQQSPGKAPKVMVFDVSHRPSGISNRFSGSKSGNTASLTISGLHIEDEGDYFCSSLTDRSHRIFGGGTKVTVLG
substance,measurement,setting,value
1443_C16 (PG16) (TCN-116) (antibody),"IC50 (neutralization, TZM-bl pseudovirus assay)",[1],0.59 µg/mL
same,"IC50 (neutralization, TZM-bl pseudovirus assay)",[2],12.3 µg/mL
same,"IC50 (neutralization, TZM-bl pseudovirus assay)",[3],< 0.01 µg/mL
same,"IC50 (neutralization, TZM-bl pseudovirus assay)",[4],< 0.01 µg/mL
same,"IC50 (neutralization, TZM-bl pseudovirus assay)",[5],< 0.01 µg/mL
same,"IC50 (neutralization, TZM-bl pseudovirus assay)",[6],2.19 µg/mL
same,"IC50 (neutralization, TZM-bl pseudovirus assay)",[7],< 0.01 µg/mL
same,"IC50 (ug/ml), pseudovirus neutralization, TZM-bl assay",[8],0.006 µg/mL
same,"IC50 (neutralization, TZM-bl pseudovirus assay)",[9],> 25 µg/mL
1496_C09 (PG9) (TCN-109) (antibody),neutralization IC50,[10],0.048 µg/mL
same,neutralization IC80,[10],0.308 µg/mL
same,neutralization IC90,[10],0.981 µg/mL
same,neutralization IC95,[10],3.31 µg/mL
same,neutralization IC50,[11],1.91 µg/mL
same,neutralization IC50,[12],0.0048 µg/mL
same,neutralization IC80,[12],0.0181 µg/mL
same,neutralization IC90,[12],0.0391 µg/mL
same,neutralization IC95,[12],0.0798 µg/mL
same,neutralization IC50,[13],0.0444 µg/mL
same,neutralization IC80,[13],0.18 µg/mL
same,neutralization IC90,[13],0.43 µg/mL
same,neutralization IC95,[13],1.05 µg/mL
4877_D15 (PGT-122) (antibody),"Neutralization by PGT-122, IC50",[14],> 10 µg/mL
same,"Neutralization by PGT-122, IC80",[14],> 10 µg/mL
same,"Neutralization by PGT-122, IC90",[14],> 10 µg/mL
same,"Neutralization by PGT-122, IC95",[14],> 10 µg/mL
same,"Neutralization by PGT-122, IC50",[15],0.0089 µg/mL
same,"Neutralization by PGT-122, IC80",[15],0.037 µg/mL
same,"Neutralization by PGT-122, IC90",[15],0.0849 µg/mL
same,"Neutralization by PGT-122, IC95",[15],0.181 µg/mL
same,"Neutralization by PGT-122, IC50",[16],0.522 µg/mL
same,"Neutralization by PGT-122, IC80",[16],1.76 µg/mL
same,"Neutralization by PGT-122, IC90",[16],3.58 µg/mL
same,"Neutralization by PGT-122, IC95",[16],6.92 µg/mL
same,"Neutralization by PGT-122, IC50",[17],0.0072 µg/mL
same,"Neutralization by PGT-122, IC80",[17],0.0407 µg/mL
same,"Neutralization by PGT-122, IC90",[17],0.113 µg/mL
same,"Neutralization by PGT-122, IC95",[17],0.289 µg/mL
same,"Neutralization by PGT-122, IC50",[18],0.191 µg/mL
same,"Neutralization by PGT-122, IC80",[18],0.931 µg/mL
same,"Neutralization by PGT-122, IC90",[18],2.1 µg/mL
same,"Neutralization by PGT-122, IC95",[18],3.88 µg/mL
same,"Neutralization by PGT-122, IC50",[19],0.0388 µg/mL
same,"Neutralization by PGT-122, IC80",[19],0.499 µg/mL
same,"Neutralization by PGT-122, IC90",[19],> 10 µg/mL
same,"Neutralization by PGT-122, IC95",[19],> 10 µg/mL
same,"Neutralization by PGT-122, IC50",[20],0.992 µg/mL
same,"Neutralization by PGT-122, IC80",[20],4.14 µg/mL
same,"Neutralization by PGT-122, IC90",[20],8.6 µg/mL
same,"Neutralization by PGT-122, IC95",[20],> 10 µg/mL
same,"Neutralization by PGT-122, IC50",[21],> 10 µg/mL
same,"Neutralization by PGT-122, IC80",[21],> 10 µg/mL
same,"Neutralization by PGT-122, IC90",[21],> 10 µg/mL
same,"Neutralization by PGT-122, IC95",[21],> 10 µg/mL
5123_A06 (PGT-125) (antibody),"Neutralization by PGT-125, IC50",[22],0.0124 µg/mL
same,"Neutralization by PGT-125, IC80",[22],0.0373 µg/mL
same,"Neutralization by PGT-125, IC90",[22],0.071 µg/mL
same,"Neutralization by PGT-125, IC95",[22],0.129 µg/mL
same,"Neutralization by PGT-125, IC50",[23],0.0214 µg/mL
same,"Neutralization by PGT-125, IC80",[23],0.0738 µg/mL
same,"Neutralization by PGT-125, IC90",[23],0.156 µg/mL
same,"Neutralization by PGT-125, IC95",[23],0.323 µg/mL
same,"Neutralization by PGT-125, IC50",[24],5.78 µg/mL
same,"Neutralization by PGT-125, IC80",[24],> 10 µg/mL
same,"Neutralization by PGT-125, IC90",[24],> 10 µg/mL
same,"Neutralization by PGT-125, IC95",[24],> 10 µg/mL
same,"Neutralization by PGT-125, IC50",[25],0.0106 µg/mL
same,"Neutralization by PGT-125, IC80",[25],0.035 µg/mL
same,"Neutralization by PGT-125, IC90",[25],0.0705 µg/mL
same,"Neutralization by PGT-125, IC95",[25],0.134 µg/mL
same,"Neutralization by PGT-125, IC50",[26],0.0066 µg/mL
same,"Neutralization by PGT-125, IC80",[26],0.0292 µg/mL
same,"Neutralization by PGT-125, IC90",[26],0.0701 µg/mL
same,"Neutralization by PGT-125, IC95",[26],0.157 µg/mL
PGV04 (antibody),"IC50 (µg/mL), pseudovirus neutralization",[27],> 50 µg/mL
same,"IC50 (µg/mL), pseudovirus neutralization",[28],0.02 µg/mL
same,"IC50 (µg/mL), pseudovirus neutralization",[29],0.031 µg/mL
same,"IC50 (µg/mL), pseudovirus neutralization",[30],0.072 µg/mL
same,"IC50, pseudovirus neutralization",[31],0.175 µg/mL
VRC01 (antibody),"IC50, pseudovirus neutralization",[32],0.344 µg/mL
same,IC50,[33],0.435 µg/mL
same,"IC50, pseudovirus neutralization",[34],0.043 µg/mL
same,IC50,[35],0.366 µg/mL
